Test [1] addresses C4-2. Briefly: flow.
Test [2] addresses C4-2 cells. As to the kind of experiment: flow.
Test [3] addresses C4-2. Briefly: flow cytometry; C4-2 cells; apparent Kd.
Test [4] addresses C4-2 cells. As to the kind of experiment: flow cytometry; C4-2 cells; apparent Kd.

No end group written: not given here.

B1: GTI (peptide)
peptide: GTIQPYPFSWGY
modifications: also: FAM (fluorescein amidite) label, position not given here
On to B1, for which the Kd with C4-2 [1] and with C4-2 cells [2] was 8.91 µM in each case.

B2: HSD (peptide)
peptide: HSDNHYRPADKL
modifications: also: FAM label, position not given here
As to B2, the Kd in the test with C4-2 [3] was found to be 30.8 µM.

B3: TGH (peptide)
peptide: TGHLYPTRMEIQ
modifications: also: FAM label, position not given here
On to B3, for which the Kd with C4-2 [3] worked out at 44.1 µM.

B4: Scrambled GTI (peptide)
peptide: SGYQTFYWPGPI
modifications: also: FAM label, position not given here
Turning to B4, the Kd with C4-2 cells [4] was greater than 100 µM.

B5: YVN (peptide)
peptide: YVNSHSILGYTG
modifications: also: FAM label, position not given here
For B5, in the test with C4-2 [3], the Kd was determined as 9.79 µM.

The values above are taken from US20170240596A1 (published 2017).
